Tested on: MS2 coat protein
Assay: apparent KD of MS2 coat protein; higher = weaker reporter binding
Settings: Eterna round: R107
Outline: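 Apparent KD was obtained for each design as the median of normalised binding-curve fits over its clusters. RNA switches transcribed on-chip from Illumina sequencing clusters were titrated with SNAP-549-labelled MS2 coat protein (twofold steps, 0.7 or 1.5 nM to 3 µM) in 100 mM Tris-HCl pH 7.5, 80 mM KCl, 4 mM MgCl2, without or with constant ligand.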

[1] = input ligand: theophylline 20 uM
[2] = input ligand: tryptophan 2.4 mM
[3] = input ligand: theophylline 2 mM

| Sequence | apparent KD of MS2 coat protein (input ligand: arginine 13.2 mM) | apparent KD of MS2 coat protein [1] | apparent KD of MS2 coat protein [2] | apparent KD of MS2 coat protein (input ligand: none) | apparent KD of MS2 coat protein [3] |
| --- | --- | --- | --- | --- | --- |
| AUCAGUAGAACUGAUACCAGUCAAAGGCUUUGACCUCAUAACAUGAGGAUCACCCAUGUUGACCCUUGGCAGCAGUAGGCAAGGG [Theo B Ex t4] | 22.5 nM | 28.9 nM | 25.4 nM |  |  |
| AGUAAUCUAAGAGAUACCAGACGGUAUAUAACAUGAGGAUCACCCAUGUUUUGGGUGUACGUCCCUUGGCAGCUCAAAAUGAUAA [#06 Same State - Theophylline B] | 123 nM | 202 nM | 382 nM |  |  |
| AAGACAUGAGGAUCACCCAUGUCGACAAAACGAGGACCGGUACGGCCGCCACUCGAAAGCAAAUGAGCGCAUGCGGCCUGGGUAU [Exclusion Tryp A GF2] | 10.1 nM | 14.1 nM | 12.7 nM | 11.9 nM | 12 nM |
| ACAUCCAGAUUAAUCGUGGGCAUACUCGAUACCAGUAUUUUAACCUACCCUUGGCAGCGACAUGAGGAUCACCCAUGUGAGAUGA [XTheo A #10] | 21.4 nM | 25.2 nM | 23.8 nM |  |  |
| UGUACUAUGUGAAGGAGCGCCACAUGAGGAUCACCCAUGUAAACAUGAGGAUCACCCAUGUGGCAGGUAGGUCGCACAUAGUACU [ArgBS - Double MS2 - I don't expect this to work] | 49.7 nM | 203 nM | 78.7 nM | 108 nM | 227 nM |
| UUGUUGUUUGGAAGGAGCGUGGAUGAGUUAGAACAUGAGGAUCACCCAUGUUGGAUGAUACCGCAGGUAGGUCGCCGGGUGGUGG [11.aA] | 141 nM | 76.4 nM | 51.5 nM | 50.7 nM | 40 nM |
| UUUUUUUUUUACAUGAGGAUCACCCAUGUUCGAGGACCGGUACGGCCGCCACUCGUUUUUGUUGUGGUAGGGUUAGGGUUAGGGU [Turkey Lurky] | 19.4 nM | 92 nM | 25.5 nM | 43.5 nM | 44.8 nM |
| CGGGCCGCUGCGGAUACCAGUUGAGCAUAGGUAGUGUAUGACAUGAGGAUCACCCAUGUUAACCCUUGGCAGCCGAGAGGGCAGA [theeternabot_exclusion_MS2_Theo_B_13] | 10.4 nM | 20.2 nM | 10.2 nM | 11.6 nM | 15.4 nM |
| GCGAUGGAGCGAAGGAGCGGCUAAAUGUAUCACAUGAGGAUCACCCAUGUUCCAGGAUGUGGCCAGGUAGGUCGCGCUCCAUCGC [SSAB NP+V+V2 #16] | 233 nM | 212 nM | 288 nM | 229 nM | 322 nM |
| UUCUACAUGAGGAUCACCCAUGUAAACGAUACCAGACGAGUAUUAGUCCCUUGGCAGCGUAGAGUGUCGUUUAUAGUAGGAUACC [TheoA-ms2@5] | 23.4 nM | 26.1 nM | 21 nM |  |  |
| UAAAACAUGAGGAUCACCCAUGUAUUGAGUCGAGGACCGGUACGGCCGCCACUCGGCAAUAAUAACGACGCAUAGCAUGUAGGAA [theeternabot_sameState_MS2_Trp_A_41] | 12.8 nM | 19.5 nM |  |  | 14.9 nM |
| UGUAUGGACUGAAGGAGCGCCUCAAAAUAACUUGAGGAUCACCCAGGUAAGGCGAAAGCCGGGCAGGUAGGUCGCAGUCCAUACU [ArgBX 3] | 31.2 nM | 43.1 nM | 49.9 nM | 37 nM | 72.3 nM |
| GGUCUCGCGGGCGAUACCAGCUUGAUCGUACUGGCCUGGUACAUGAGGAUCACCCAUGUAAGCCCUUGGCAGCGCGCGCGAGACC [#1 Exclusion - Theophylline B Attempt #5 (HarryS)] | 10.4 nM | 16.4 nM | 11.9 nM | 10.6 nM | 32.1 nM |
| ACUAGUUGUGCAGAUACCAGACACGAGGAUCACCCGUGUUUGGGAUGUUCGCAUCUUCCUGUCCCUUGGCAGCUGUACAUCUAGA [Omei Theo B Exc v8] | 15.8 nM | 23.5 nM | 17 nM | 15.1 nM | 221 nM |
| AGACACAUGAGGAUCACCCAUGUACACGAGCGAGGACCGGUACGGCCGCCACUCGUCCAAGCAACUAAUGAGACUCGUAAGAUGG [theeternabot_sameState_MS2_Trp_A_5] | 17.1 nM | 31.6 nM |  |  | 23.4 nM |
| GAGGGUGAGCCUCUGGUCCGUUUGACGGAUACCAGCGAGAGGUCUCGCCCUUGGCAGCCGACGACAUGAGGAUCACCCAUGUUAA [#09 Exclusion-TheophyllineA] | 17.3 nM | 21.4 nM | 15.7 nM | 17.1 nM | 19.2 nM |
| ACAUGAGGAUCACCCAUGUGAAGGCACGAUACCAGCUGAUCCCGUGGCCCUUGGCAGCGUCACGUUUGGUCCCGCGGAUGAGACG [crcmullin] | 20.8 nM | 21.5 nM | 13.8 nM | 14.2 nM | 17 nM |
| AGCGGCUCGAAAGAGUCGCACUCAUGUGAAGGAGCGCGCGUAAGCGCAGGUAGGUCGCACAUGAGGAUCACCCAUGUACCUUCUA [MAT - Exclusion Arginine A - Mod of Eli - D21] | 68.5 nM | 206 nM | 118 nM | 235 nM | 262 nM |

Reference: the supplement of paper PMC9170038
